{
  "source": "the supplement of paper PMC10219994",
  "parents": {"B1": {"name": "library; a variant is named by its letters at N, in order (parent)", "chain": "GAGACCGCAACTGAAAAGTTGTGGNNNNNATAGTGAGTCGCTGCCTGCAAAGACACAACT"}},
  "note": "± gives the standard deviation of the averaged measurements.",
  "data": [
    {"variants_of": "B1", "experiment": "ligation selection enrichment (abundance after / before one-round selection) (fold); higher = more template-directed ligation activity", "settings": "with T7Psub CACGGAUGCUAAUACGACUCACUAUA; MgCl2 25 mM; 42 °C; 4 h; pH 8.5", "description": "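Lib-N5 ligase ribozyme library: five randomized core nucleotides (including the GGA motif of N8-1) within the fixed N8-1 ribozyme flanks, transcribed by T7 RNA polymerase with a 5'-triphosphate. The library (0.75 uM) was reacted with substrate T7Psub (6 uM) in 50 mM EPPS pH 8.5 with 25 mM MgCl2 at 42 C for 4 h. Ligated products were PAGE-purified, reverse transcribed and MiSeq sequenced; enrichment = abundance after selection / abundance before selection, with two independent replicates. The full transcript is built from the printed template flanks.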", "values": [
      {"variant": "GAGACCGCAACTGAAAAGTTGTGGGATTAATAGTGAGTCGCTGCCTGCAAAGACACAACT", "note": "[GATTA]", "ligation selection enrichment": "0.278 ± 0.094"},
      {"variant": "GAGACCGCAACTGAAAAGTTGTGGGATTCATAGTGAGTCGCTGCCTGCAAAGACACAACT", "note": "[GATTC]", "ligation selection enrichment": "0.183 ± 0.0076"},
      {"variant": "GAGACCGCAACTGAAAAGTTGTGGGATTTATAGTGAGTCGCTGCCTGCAAAGACACAACT", "note": "[GATTT]", "ligation selection enrichment": "0.577 ± 0.15"},
      {"variant": "GAGACCGCAACTGAAAAGTTGTGGGATTGATAGTGAGTCGCTGCCTGCAAAGACACAACT", "note": "[GATTG]", "ligation selection enrichment": "1.47 ± 0.2"},
      {"variant": "GAGACCGCAACTGAAAAGTTGTGGGATCTATAGTGAGTCGCTGCCTGCAAAGACACAACT", "note": "[GATCT]", "ligation selection enrichment": "0.306 ± 0.085"},
      {"variant": "GAGACCGCAACTGAAAAGTTGTGGGATCGATAGTGAGTCGCTGCCTGCAAAGACACAACT", "note": "[GATCG]", "ligation selection enrichment": "0.78 ± 0.097"},
      {"variant": "GAGACCGCAACTGAAAAGTTGTGGGATCCATAGTGAGTCGCTGCCTGCAAAGACACAACT", "note": "[GATCC]", "ligation selection enrichment": "0.276 ± 0.057"},
      {"variant": "GAGACCGCAACTGAAAAGTTGTGGGATGCATAGTGAGTCGCTGCCTGCAAAGACACAACT", "note": "[GATGC]", "ligation selection enrichment": "0.247 ± 0.024"},
      {"variant": "GAGACCGCAACTGAAAAGTTGTGGGATGTATAGTGAGTCGCTGCCTGCAAAGACACAACT", "note": "[GATGT]", "ligation selection enrichment": "0.126 ± 0.036"},
      {"variant": "GAGACCGCAACTGAAAAGTTGTGGGATGGATAGTGAGTCGCTGCCTGCAAAGACACAACT", "note": "[GATGG]", "ligation selection enrichment": "0.46 ± 0.1"},
      {"variant": "GAGACCGCAACTGAAAAGTTGTGGGATGAATAGTGAGTCGCTGCCTGCAAAGACACAACT", "note": "[GATGA]", "ligation selection enrichment": "0.606 ± 0.077"},
      {"variant": "GAGACCGCAACTGAAAAGTTGTGGAATCCATAGTGAGTCGCTGCCTGCAAAGACACAACT", "note": "[AATCC]", "ligation selection enrichment": "0.358 ± 0.014"},
      {"variant": "GAGACCGCAACTGAAAAGTTGTGGAATCTATAGTGAGTCGCTGCCTGCAAAGACACAACT", "note": "[AATCT]", "ligation selection enrichment": "0.451 ± 0.12"},
      {"variant": "GAGACCGCAACTGAAAAGTTGTGGAATCGATAGTGAGTCGCTGCCTGCAAAGACACAACT", "note": "[AATCG]", "ligation selection enrichment": "0.816 ± 0.11"},
      {"variant": "GAGACCGCAACTGAAAAGTTGTGGTATTGATAGTGAGTCGCTGCCTGCAAAGACACAACT", "note": "[TATTG]", "ligation selection enrichment": "2.17 ± 0.33"},
      {"variant": "GAGACCGCAACTGAAAAGTTGTGGTATTCATAGTGAGTCGCTGCCTGCAAAGACACAACT", "note": "[TATTC]", "ligation selection enrichment": "0.186 ± 0.0052"},
      {"variant": "GAGACCGCAACTGAAAAGTTGTGGTATTTATAGTGAGTCGCTGCCTGCAAAGACACAACT", "note": "[TATTT]", "ligation selection enrichment": "0.402 ± 0.22"},
      {"variant": "GAGACCGCAACTGAAAAGTTGTGGTATTAATAGTGAGTCGCTGCCTGCAAAGACACAACT", "note": "[TATTA]", "ligation selection enrichment": "0.197 ± 0.042"},
      {"variant": "GAGACCGCAACTGAAAAGTTGTGGAATGGATAGTGAGTCGCTGCCTGCAAAGACACAACT", "note": "[AATGG]", "ligation selection enrichment": "0.467 ± 0.097"},
      {"variant": "GAGACCGCAACTGAAAAGTTGTGGAATGCATAGTGAGTCGCTGCCTGCAAAGACACAACT", "note": "[AATGC]", "ligation selection enrichment": "0.198 ± 0.015"},
      {"variant": "GAGACCGCAACTGAAAAGTTGTGGAATGTATAGTGAGTCGCTGCCTGCAAAGACACAACT", "note": "[AATGT]", "ligation selection enrichment": "0.153 ± 0.076"},
      {"variant": "GAGACCGCAACTGAAAAGTTGTGGAATGAATAGTGAGTCGCTGCCTGCAAAGACACAACT", "note": "[AATGA]", "ligation selection enrichment": "0.528 ± 0.046"},
      {"variant": "GAGACCGCAACTGAAAAGTTGTGGAATTAATAGTGAGTCGCTGCCTGCAAAGACACAACT", "note": "[AATTA]", "ligation selection enrichment": "0.421 ± 0.03"},
      {"variant": "GAGACCGCAACTGAAAAGTTGTGGAATTTATAGTGAGTCGCTGCCTGCAAAGACACAACT", "note": "[AATTT]", "ligation selection enrichment": "0.624 ± 0.11"},
      {"variant": "GAGACCGCAACTGAAAAGTTGTGGAATTGATAGTGAGTCGCTGCCTGCAAAGACACAACT", "note": "[AATTG]", "ligation selection enrichment": "1.46 ± 0.055"},
      {"variant": "GAGACCGCAACTGAAAAGTTGTGGAATTCATAGTGAGTCGCTGCCTGCAAAGACACAACT", "note": "[AATTC]", "ligation selection enrichment": "0.201 ± 0.075"},
      {"variant": "GAGACCGCAACTGAAAAGTTGTGGTATCCATAGTGAGTCGCTGCCTGCAAAGACACAACT", "note": "[TATCC]", "ligation selection enrichment": "0.323 ± 0.051"},
      {"variant": "GAGACCGCAACTGAAAAGTTGTGGTATCTATAGTGAGTCGCTGCCTGCAAAGACACAACT", "note": "[TATCT]", "ligation selection enrichment": "0.379 ± 0.13"},
      {"variant": "GAGACCGCAACTGAAAAGTTGTGGTATCGATAGTGAGTCGCTGCCTGCAAAGACACAACT", "note": "[TATCG]", "ligation selection enrichment": "0.999 ± 0.23"},
      {"variant": "GAGACCGCAACTGAAAAGTTGTGGCATTAATAGTGAGTCGCTGCCTGCAAAGACACAACT", "note": "[CATTA]", "ligation selection enrichment": "0.16 ± 0.038"},
      {"variant": "GAGACCGCAACTGAAAAGTTGTGGCATTCATAGTGAGTCGCTGCCTGCAAAGACACAACT", "note": "[CATTC]", "ligation selection enrichment": "0.152 ± 0.013"},
      {"variant": "GAGACCGCAACTGAAAAGTTGTGGCATTTATAGTGAGTCGCTGCCTGCAAAGACACAACT", "note": "[CATTT]", "ligation selection enrichment": "0.539 ± 0.13"},
      {"variant": "GAGACCGCAACTGAAAAGTTGTGGCATTGATAGTGAGTCGCTGCCTGCAAAGACACAACT", "note": "[CATTG]", "ligation selection enrichment": "1.24 ± 0.22"},
      {"variant": "GAGACCGCAACTGAAAAGTTGTGGTCAAAATAGTGAGTCGCTGCCTGCAAAGACACAACT", "note": "[TCAAA]", "ligation selection enrichment": "0.317 ± 0.039"},
      {"variant": "GAGACCGCAACTGAAAAGTTGTGGCATGGATAGTGAGTCGCTGCCTGCAAAGACACAACT", "note": "[CATGG]", "ligation selection enrichment": "0.226 ± 0.027"},
      {"variant": "GAGACCGCAACTGAAAAGTTGTGGCATGCATAGTGAGTCGCTGCCTGCAAAGACACAACT", "note": "[CATGC]", "ligation selection enrichment": "0.1307 ± 0.00014"},
      {"variant": "GAGACCGCAACTGAAAAGTTGTGGCATGAATAGTGAGTCGCTGCCTGCAAAGACACAACT", "note": "[CATGA]", "ligation selection enrichment": "0.381 ± 0.068"},
      {"variant": "GAGACCGCAACTGAAAAGTTGTGGCATGTATAGTGAGTCGCTGCCTGCAAAGACACAACT", "note": "[CATGT]", "ligation selection enrichment": "0.109 ± 0.064"},
      {"variant": "GAGACCGCAACTGAAAAGTTGTGGTATGGATAGTGAGTCGCTGCCTGCAAAGACACAACT", "note": "[TATGG]", "ligation selection enrichment": "0.616 ± 0.093"},
      {"variant": "GAGACCGCAACTGAAAAGTTGTGGTATGTATAGTGAGTCGCTGCCTGCAAAGACACAACT", "note": "[TATGT]", "ligation selection enrichment": "0.135 ± 0.031"},
      {"variant": "GAGACCGCAACTGAAAAGTTGTGGTATGCATAGTGAGTCGCTGCCTGCAAAGACACAACT", "note": "[TATGC]", "ligation selection enrichment": "0.29 ± 0.026"},
      {"variant": "GAGACCGCAACTGAAAAGTTGTGGTATGAATAGTGAGTCGCTGCCTGCAAAGACACAACT", "note": "[TATGA]", "ligation selection enrichment": "2.32 ± 0.16"},
      {"variant": "GAGACCGCAACTGAAAAGTTGTGGCATCGATAGTGAGTCGCTGCCTGCAAAGACACAACT", "note": "[CATCG]", "ligation selection enrichment": "1.33 ± 0.14"},
      {"variant": "GAGACCGCAACTGAAAAGTTGTGGCATCCATAGTGAGTCGCTGCCTGCAAAGACACAACT", "note": "[CATCC]", "ligation selection enrichment": "0.247 ± 0.012"},
      {"variant": "GAGACCGCAACTGAAAAGTTGTGGCATCTATAGTGAGTCGCTGCCTGCAAAGACACAACT", "note": "[CATCT]", "ligation selection enrichment": "0.541 ± 0.19"}
    ]}
  ]
}
